The values that follow come from the Immune Epitope Database (IEDB).

One assay deals with HLA-A*02:01. Put plainly: IEDB peptide-MHC binding, purified MHC/competitive/fluorescence; filed as Kd, often an IC50 or EC50 that approximates it; ≥ and ≤ were set here for values at or beyond the usual limits of such assays.
For assay [1], the target named is HLA-A*02:03. The assay is described as above.
For assay [2], the target named is HLA-A*02:12. The description is as above.
For assay [3], the target named is HLA-A*02:19. The assay is described as above.
The target of assay [4] is HLA-A*03:01. Described as above.
In a further assay the target is HLA-A*24:03. Described as above.
A further assay deals with HLA-A*26:01. The assay is described as above.
Another assay addresses HLA-B*15:01. The description is as above.
The target in a further assay is HLA-B*18:01. The description is as above.
For another assay, the target named is HLA-B*27:03. The description is as above.
The target in the next assay is HLA-B*39:01. The assay is described as above.
Another assay has as its target HLA-B*46:01. The description is as above.
In the next assay the target is HLA-B*51:01. The assay is described as above.
Another assay has as its target HLA-B*57:01. Described as above.
Assay [5] addresses HLA-A*02:11. Described as above. As to conditions: source organism: Entamoeba histolytica HM-1:IMSS.
The next assay addresses HLA-A*02:06. The assay is described as above. The following applies: source organism: Human immunodeficiency virus 1.
The next assay addresses HLA-A*30:01. The description is as above. The following applies: source organism: Human immunodeficiency virus 1.
Another assay deals with HLA-A*31:01. The description is as above. The following applies: source organism: Human immunodeficiency virus 1.
The target of another assay is HLA-C*03:03. Put plainly: IEDB peptide-MHC binding, purified MHC/direct/fluorescence; filed as Kd, often an IC50 or EC50 that approximates it; ≥ and ≤ were set here for values at or beyond the usual limits of such assays.
The target of assay [6] is HLA-A*68:02. Put plainly: IEDB peptide-MHC binding, purified MHC/competitive/fluorescence; filed as Kd, often an IC50 or EC50 that approximates it; ≥ and ≤ were set here for values at or beyond the usual limits of such assays.
The next assay has as its target HLA-A*69:01. The description is as above.
For another assay, the target named is HLA-A*29:02. Described as above.
For another assay, the target named is HLA-B*15:17. Described as above. As to conditions: source organism: Vibrio parahaemolyticus AQ3810.
For assay [7], the target named is HLA-A*02:03. Description: IEDB peptide-MHC binding, purified MHC/direct/fluorescence; filed as Kd, often an IC50 or EC50 that approximates it; ≥ and ≤ were set here for values at or beyond the usual limits of such assays. The following applies: source organism: Orthohantavirus andesense.
In assay [8] the target is HLA-A*02:11. The description is as above. As to conditions: source organism: Orthohantavirus andesense.
The target of assay [9] is HLA-A*02:12. Described as above. As to conditions: source organism: Orthohantavirus andesense.
The target in another assay is HLA-A*02:16. The description is as above. As to conditions: source organism: Orthohantavirus andesense.
Assay [10] addresses HLA-A*02:19. The description is as above. As to conditions: source organism: Orthohantavirus andesense.
The target in assay [11] is HLA-A*03:01. The description is as above. The following applies: source organism: Orthohantavirus andesense.
In assay [12] the target is HLA-A*68:02. The description is as above. The following applies: source organism: Orthohantavirus andesense.
For another assay, the target named is HLA-B*07:02. Put plainly: IEDB peptide-MHC binding, purified MHC/competitive/fluorescence; filed as Kd, often an IC50 or EC50 that approximates it; ≥ and ≤ were set here for values at or beyond the usual limits of such assays.
For the next assay, the target named is HLA-B*08:01. Described as above. The following applies: source organism: Yersinia pestis Nepal516.
Another assay concerns the target HLA-B*35:01. The description is as above.
Another assay concerns the target HLA-A*23:01. The assay is described as above. As to conditions: source organism: Rickettsia sibirica 246.
Setting [13] is: source organism: Giardia lamblia ATCC 50803.
The mark [14] stands for this setting: source organism: Entamoeba histolytica HM-1:IMSS.
Setting [15] is: source organism: Human immunodeficiency virus 1.
Where [16] appears, read: source organism: Yersinia pestis Nepal516.
Where [17] appears, read: source organism: Vibrio parahaemolyticus AQ3810.
Setting [18] is: source organism: Orthohantavirus andesense.
Where [19] appears, read: source organism: Entamoeba dispar SAW760.
Where [20] appears, read: source organism: Bacillus cereus G9241.

TELPLAYER: the Kd with HLA-A*02:01 (setting [13]), in the assay with HLA-A*02:03 [1] (setting [13]), with HLA-A*02:12 [2] (setting [13]), in the assay with HLA-A*02:19 [3] (setting [13]), with HLA-A*03:01 [4] (setting [13]) and with HLA-A*24:03 (setting [13]) was not below 20 µM in each case. Moreover, the Kd is not below 20 µM with HLA-A*26:01 (setting [13]); not below 20 µM with HLA-B*15:01 (setting [13]); 0.395 µM with HLA-B*18:01 (setting [13]); not below 20 µM with HLA-B*27:03 (setting [13]); not below 20 µM with HLA-B*39:01 (setting [13]); not below 20 µM in the assay with HLA-B*46:01 (setting [13]). The Kd with HLA-B*51:01 (setting [13]) and with HLA-B*57:01 (setting [13]) was not below 20 µM in each case.

Take TLPGCLIIL: the Kd in the assay with HLA-A*02:11 [5] is 4.65 µM; in the assay with HLA-A*03:01 [4] (setting [14]), not below 20 µM; with HLA-A*26:01 (setting [14]), not below 20 µM; with HLA-B*15:01 (setting [14]) it was not below 20 µM; with HLA-B*18:01 (setting [14]) it was not below 20 µM; with HLA-B*27:03 (setting [14]) it was not below 20 µM. For the same sequence, the Kd with HLA-B*39:01 (setting [14]), with HLA-B*46:01 (setting [14]), with HLA-B*51:01 (setting [14]) and with HLA-B*57:01 (setting [14]) was not below 20 µM throughout.

Regarding EKLKSLYNTI, the Kd with HLA-A*02:03 [1] (setting [15]) came out at 0.0239 µM; with HLA-A*02:06, 3.71 µM; in the assay with HLA-A*30:01, 0.072 µM; with HLA-A*31:01, 4.47 µM; in the assay with HLA-B*39:01 (setting [15]), 0.747 µM.

Regarding RMAATAQVL, the Kd with HLA-C*03:03 (source organism: Mycobacterium tuberculosis C) was 0.012 µM.

As to ILHRLAPWI, the Kd is 0.0473 µM in the assay with HLA-A*02:01 (setting [16]); 0.103 µM with HLA-A*02:12 [2] (setting [16]); not below 20 µM with HLA-A*03:01 [4] (setting [16]); not below 20 µM in the assay with HLA-A*26:01 (setting [16]); not below 20 µM with HLA-A*68:02 [6] (setting [16]); not below 20 µM in the assay with HLA-A*69:01 (setting [16]). For the same sequence, the Kd with HLA-B*15:01 (setting [16]), with HLA-B*18:01 (setting [16]), with HLA-B*27:03 (setting [16]), with HLA-B*39:01 (setting [16]), with HLA-B*46:01 (setting [16]) and with HLA-B*51:01 (setting [16]) was not below 20 µM in each case. For the same sequence, the Kd with HLA-B*57:01 (setting [16]) is not below 20 µM.

On to MLTNASGHA, for which the Kd in the assay with HLA-A*02:01 (setting [17]) was 0.2 µM; in the assay with HLA-A*02:12 [2] (setting [17]), 0.438 µM; with HLA-A*02:19 [3] (setting [17]), not below 20 µM; in the assay with HLA-A*03:01 [4] (setting [17]), not below 20 µM; in the assay with HLA-A*24:03 (setting [17]), not below 20 µM; with HLA-A*26:01 (setting [17]), not below 20 µM. Moreover, the Kd in the assay with HLA-A*29:02 (setting [17]), in the assay with HLA-A*69:01 (setting [17]), with HLA-B*15:01 (setting [17]), with HLA-B*15:17, with HLA-B*18:01 (setting [17]) and with HLA-B*27:03 (setting [17]) was not below 20 µM in each case. Moreover, the Kd with HLA-B*39:01 (setting [17]), in the assay with HLA-B*46:01 (setting [17]), with HLA-B*51:01 (setting [17]) and in the assay with HLA-B*57:01 (setting [17]) was not below 20 µM in each case.

In the assay with HLA-C*03:03 (source organism: Mycobacterium tuberculosis str. Haarlem), RLREALCAV returned a Kd not below 20 µM.

With VFTSRIQVI, the Kd with HLA-A*02:03 [7], with HLA-A*02:11 [8], in the assay with HLA-A*02:12 [9], in the assay with HLA-A*02:16, in the assay with HLA-A*02:19 [10] and in the assay with HLA-A*03:01 [11] was not below 20 µM each time. In addition, the Kd is not below 20 µM in the assay with HLA-A*68:02 [12]; not below 20 µM in the assay with HLA-A*02:01 (setting [18]); 0.0246 µM with HLA-A*24:03 (setting [18]); not below 20 µM in the assay with HLA-A*26:01 (setting [18]); not below 20 µM in the assay with HLA-A*69:01 (setting [18]); not below 20 µM with HLA-B*18:01 (setting [18]). Moreover, the Kd in the assay with HLA-B*27:03 (setting [18]), with HLA-B*39:01 (setting [18]), in the assay with HLA-B*46:01 (setting [18]), in the assay with HLA-B*51:01 (setting [18]) and in the assay with HLA-B*57:01 (setting [18]) was not below 20 µM in each case.

As to LPLNRAYPL, the Kd is 0.0063 µM in the assay with HLA-B*07:02 (setting [16]); 0.06 µM in the assay with HLA-B*08:01; not above 0.0001 µM with HLA-B*35:01 (setting [16]); 0.0093 µM with HLA-B*39:01 (setting [16]); 2.57 µM with HLA-B*51:01 (setting [16]).

KFVAGAMNI displayed a Kd with HLA-A*23:01 of 0.0117 µM.

In the assay with HLA-B*07:02 (source organism: Influenza A virus (A/Denver/1957(H1N1))), RIRFVQNAL showed a Kd of 0.0199 µM.

As to KDGTLFYCY, the Kd with HLA-A*02:03 [1] (setting [19]) was not below 20 µM; in the assay with HLA-A*02:12 [2] (setting [19]), not below 20 µM; with HLA-A*02:19 [3] (setting [19]), not below 20 µM; in the assay with HLA-A*03:01 [4] (setting [19]), not below 20 µM; with HLA-A*26:01 (setting [19]) it was not below 20 µM; in the assay with HLA-A*29:02 (setting [19]), 0.106 µM. Also, the Kd in the assay with HLA-A*68:02 [6] (setting [19]), with HLA-A*69:01 (setting [19]), with HLA-B*15:01 (setting [19]), in the assay with HLA-B*27:03 (setting [19]), in the assay with HLA-B*39:01 (setting [19]) and in the assay with HLA-B*46:01 (setting [19]) was not below 20 µM throughout. Besides, the Kd with HLA-B*51:01 (setting [19]) and in the assay with HLA-B*57:01 (setting [19]) was not below 20 µM in each case.

For IPLSILLTL, the Kd worked out at 0.028 µM with HLA-B*07:02 (setting [20]), 0.0004 µM in the assay with HLA-B*35:01 (setting [20]) and 0.954 µM with HLA-B*51:01 (setting [20]).

By Kd is commonly meant the concentration at which binding is half-saturated.
